Experiments:
[1] = target: GH2 β-mannosidase from Cellulomonas fimi (EC 3.2.1.25) (Cellulomonas fimi) (UniProt Q9XCV4)
[2] = target: GH2 β-mannosidase from Cellulomonas fimi (EC 3.2.1.25) (Cellulomonas fimi) (UniProt Q9XCV4); remark: listed apart in the source
[3] = target: GH2 β-mannosidase from Cellulomonas fimi (EC 3.2.1.25) (Cellulomonas fimi) (UniProt Q9XCV4); remark: listed apart in the source
[4] = target: GH2 β-mannosidase from Cellulomonas fimi (EC 3.2.1.25) (Cellulomonas fimi) (UniProt Q9XCV4); test: enzyme inhibition titration (residual activity against inhibitor/enzyme ratio); fixed enzyme (11.8 μM) preincubated with increasing γC for 10 min at room temperature; 100 mM sodium maleate pH 6.0, BSA 1 mg/mL, 1 mM Zn2+, pNP-β-D-mannopyranoside 0.8 mM, 35 °C, 15 min; Ki calculated from the IC50 by the method of Cer et al., assuming competitive inhibition (Km 300 μM); stoichiometry from the x-intercept of the tangent line

Sequence of UniProt Q9XCV4 (Q9XCV4 entry or part of it): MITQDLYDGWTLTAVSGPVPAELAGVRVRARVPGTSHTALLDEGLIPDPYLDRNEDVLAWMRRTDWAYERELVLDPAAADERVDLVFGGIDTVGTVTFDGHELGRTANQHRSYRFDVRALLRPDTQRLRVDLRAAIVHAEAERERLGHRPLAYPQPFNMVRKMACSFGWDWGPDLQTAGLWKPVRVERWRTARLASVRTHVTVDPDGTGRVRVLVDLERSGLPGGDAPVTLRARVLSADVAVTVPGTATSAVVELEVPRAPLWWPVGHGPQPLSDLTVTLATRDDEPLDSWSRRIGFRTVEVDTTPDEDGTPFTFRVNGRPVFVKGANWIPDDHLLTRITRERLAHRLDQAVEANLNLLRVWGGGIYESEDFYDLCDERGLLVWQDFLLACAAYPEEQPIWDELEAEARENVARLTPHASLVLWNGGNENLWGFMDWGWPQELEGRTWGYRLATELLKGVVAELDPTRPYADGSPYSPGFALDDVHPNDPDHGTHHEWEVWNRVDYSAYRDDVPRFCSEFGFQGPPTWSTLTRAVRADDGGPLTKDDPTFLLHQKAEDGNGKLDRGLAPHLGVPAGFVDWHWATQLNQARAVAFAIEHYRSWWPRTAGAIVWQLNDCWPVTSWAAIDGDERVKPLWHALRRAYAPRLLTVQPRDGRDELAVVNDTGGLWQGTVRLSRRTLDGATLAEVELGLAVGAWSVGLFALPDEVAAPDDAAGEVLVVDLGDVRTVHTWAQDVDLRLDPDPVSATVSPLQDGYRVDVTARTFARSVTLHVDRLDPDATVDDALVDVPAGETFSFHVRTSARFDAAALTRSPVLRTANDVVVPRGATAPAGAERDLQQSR

Question: Which results are given for “Lupinus albus γ-conglutin (natural protein)”?
Answer: residual activity of GH2 β-mannosidase with γC at a molar ratio of 1:1 (pNP-β-D-mannopyranoside as substrate, no metal added) [1]: 73%; residual activity of GH2 β-mannosidase with γC at a molar ratio of 1:1 in the presence of 1 mM Zn2+ [2]: 55%; IC50 of the inhibition of GH2 β-mannosidase activity by γC, as a molar ratio (11.8 μM enzyme, 1 mM Zn2+, pH 6.0) (molar ratio [γC]/[GH2]) [3]: 0.99; Ki [4]: 1550 nM; stoichiometry N (enzyme/inhibitor) [4]: 1.14

— PMC7583008
